T1: recombinant soluble human CEA (extracellular domain, AA 1-687 of huCEA, C-terminal 6xHis) (human, UniProt P06731 35-687)
T1 construct: also called sCEA; soluble CEA
T1 sequence: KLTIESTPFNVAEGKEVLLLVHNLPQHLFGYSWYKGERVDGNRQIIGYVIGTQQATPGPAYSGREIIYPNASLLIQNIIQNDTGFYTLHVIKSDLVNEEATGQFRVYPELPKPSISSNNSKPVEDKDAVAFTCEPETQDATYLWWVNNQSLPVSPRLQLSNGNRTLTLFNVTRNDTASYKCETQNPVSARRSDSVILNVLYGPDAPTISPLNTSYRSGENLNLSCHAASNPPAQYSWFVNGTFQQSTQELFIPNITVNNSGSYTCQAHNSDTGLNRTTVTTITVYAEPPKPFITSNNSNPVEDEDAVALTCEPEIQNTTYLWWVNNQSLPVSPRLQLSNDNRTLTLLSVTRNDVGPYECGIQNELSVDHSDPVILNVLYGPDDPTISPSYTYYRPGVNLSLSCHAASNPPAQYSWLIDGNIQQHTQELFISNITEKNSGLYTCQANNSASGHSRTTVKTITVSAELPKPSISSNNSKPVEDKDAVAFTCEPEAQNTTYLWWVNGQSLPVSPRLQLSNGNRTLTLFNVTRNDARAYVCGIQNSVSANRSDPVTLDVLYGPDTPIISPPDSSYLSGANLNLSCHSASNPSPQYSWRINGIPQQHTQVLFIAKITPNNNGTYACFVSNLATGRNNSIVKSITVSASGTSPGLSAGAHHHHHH

T2: human CEA on cells (MKN45, LOVO, NCI-H2122, LS174T, CT26/CEA) (human, UniProt P06731 35-685)
T2 sequence: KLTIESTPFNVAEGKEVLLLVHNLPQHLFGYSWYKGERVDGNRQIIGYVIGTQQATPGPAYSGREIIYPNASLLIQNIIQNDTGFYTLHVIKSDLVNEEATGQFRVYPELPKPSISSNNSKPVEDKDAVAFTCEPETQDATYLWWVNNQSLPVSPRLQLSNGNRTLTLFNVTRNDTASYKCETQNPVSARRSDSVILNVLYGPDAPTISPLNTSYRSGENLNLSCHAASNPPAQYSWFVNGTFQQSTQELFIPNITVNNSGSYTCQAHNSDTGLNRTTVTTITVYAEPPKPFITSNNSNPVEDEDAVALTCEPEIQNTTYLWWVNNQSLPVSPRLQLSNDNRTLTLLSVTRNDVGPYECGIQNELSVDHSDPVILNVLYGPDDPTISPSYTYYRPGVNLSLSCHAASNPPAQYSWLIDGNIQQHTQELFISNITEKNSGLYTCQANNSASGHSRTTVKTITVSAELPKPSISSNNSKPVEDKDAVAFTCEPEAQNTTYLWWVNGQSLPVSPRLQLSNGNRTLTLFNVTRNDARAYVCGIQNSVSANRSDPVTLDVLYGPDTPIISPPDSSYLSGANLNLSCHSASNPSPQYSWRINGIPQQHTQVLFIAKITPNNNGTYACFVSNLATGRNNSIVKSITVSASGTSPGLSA

T3: chimeric construct (CHIM) (human)
T3 construct: CEACAM6 AA 1-273 joined to the membrane-peripheral region containing domain B3 of CEA (AA 596-687), C-terminal 6xHis; also called chimeric CEA
T3 chain: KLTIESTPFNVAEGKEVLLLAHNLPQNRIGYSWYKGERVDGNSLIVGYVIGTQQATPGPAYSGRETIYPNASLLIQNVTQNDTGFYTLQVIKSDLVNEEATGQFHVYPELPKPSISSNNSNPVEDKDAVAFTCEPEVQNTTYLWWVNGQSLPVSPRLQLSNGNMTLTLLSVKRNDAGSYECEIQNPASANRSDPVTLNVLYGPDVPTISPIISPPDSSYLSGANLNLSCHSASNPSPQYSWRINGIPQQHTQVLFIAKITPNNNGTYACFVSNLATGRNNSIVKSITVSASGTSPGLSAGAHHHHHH


Key:
[1] = target: T1, recombinant soluble human CEA …; assay: SPR; kinetics on huCEA, IgG format
[2] = target: T2, human CEA on cells (MKN45, LOVO, …); assay: cell-based or functional assay
[3] = target: T2, human CEA on cells (MKN45, LOVO, …); assay: cell-based or functional assay; remark: listed apart in the source
[4] = target: T2, human CEA on cells (MKN45, LOVO, …); assay: cell-based or functional assay; remark: listed apart in the source
[5] = target: T2, human CEA on cells (MKN45, LOVO, …); assay: flow cytometry on MKN45 cells
[6] = target: T3, chimeric construct (CHIM); assay: SPR; binding to CHIM

Row | Binder | Kd [1] [nM] | EC50, cell killing of MKN45 cells [2] [nM] | Emax, cell killing of MKN45 cells [2] | Emax, cell killing of NCI-H2122 cells [3] | EC50, cell killing of LS174T cells [4] [nM] | Emax, cell killing of LS174T cells [4] | koff [1] [s⁻¹] | kon [1] [M⁻¹ s⁻¹] | EC50 [5] [mg/L] | Top [5] | also measured
1 | BGA6710 variant K13E, Y57K (antibody, V domains shown, IgG format; both changes in the heavy chain) VH: QVQLVQSGAEVKEPGASVKVSCKASGYIFTSYYLHWVRQAPGQGLEWIGYINPQTGKTSYAQKFQGRVTMTRDTSTSTVYMELSSLRSEDTAVYYCAREYGNYNYPLDYWGQGTLVTVSS VL: DIQMTQSPSSLSASVGDRVTITCRASENQYGYLAWYQQKPGKVPKLLIYNYKNLVEGVPSRFSGSGSGTDFTLTISSLQPEDVATYYCQHHLGTPYTFGQGTKVEIK | 1.34 | – | – | – | – | – | – | – | – | – | –
2 | BGA9962 (antibody, human IgG1, kappa, V domains shown, linker-payload conjugated after reduction of the antibody, DAR 8 (structure only as a drawing in Table 18)) VH: QVQLVQSGAEVKKPGASVKVSCKASGYIFTSYYLHWVRQAPGQGLEWIGYINPQTGKTSYAQKFQGRVTMTRDTSTSTVYMELSSLRSEDTAVYYCAREYGNYNYPLDYWGQGTLVTVSS VL: DIQMTQSPSSLSASVGDRVTITCRASENQYGYLAWYQQKPGKVPKLLIYNYKNLVEGVPSRFSGSGSGTDFTLTISSLQPEDVATYYCQHHLGTPYTFGQGTKVEIKR | – | 0.39 | 87.1 | 80 | 0.83 | 66.7 | – | – | – | – | EC50, cell killing of NCI-H2122 cells [3]: 0.17 nM
3 | BGA0084 (antibody, human IgG1, kappa, V domains shown, linker-payload conjugated after reduction of the antibody, DAR 8 profile (structure only as a drawing in Table 18)) VH: QVQLVQSGAEVKKPGASVKVSCKASGYIFTSYYLHWVRQAPGQGLEWIGYINPQTGKTSYAQKFQGRVTMTRDTSTSTVYMELSSLRSEDTAVYYCAREYGNYNYPLDYWGQGTLVTVSS VL: DIQMTQSPSSLSASVGDRVTITCRASENQYGYLAWYQQKPGKVPKLLIYNYKNLVEGVPSRFSGSGSGTDFTLTISSLQPEDVATYYCQHHLGTPYTFGQGTKVEIKR | – | 0.38 | 88.8 | 83.8 | 0.85 | 69.9 | – | – | – | – | EC50, cell killing of NCI-H2122 cells [3]: 0.19 nM
4 | BGA7413 (antibody, human IgG1, kappa, V domains shown, linker-payload conjugated after reduction of the antibody, DAR 8 profile (structure only as a drawing in Table 18)) VH: QVQLVQSGAEVKKPGASVKVSCKASGYIFTSYYLHWVRQAPGQGLEWIGYINPQTGKTSYAQKFQGRVTMTRDTSTSTVYMELSSLRSEDTAVYYCAREYGNYNYPLDYWGQGTLVTVSS VL: DIQMTQSPSSLSASVGDRVTITCRASENQYGYLAWYQQKPGKVPKLLIYNYKNLVEGVPSRFSGSGSGTDFTLTISSLQPEDVATYYCQHHLGTPYTFGQGTKVEIKR | – | 0.46 | 87.2 | 81.5 | 0.88 | 66.9 | – | – | – | – | –
5 | BGA8357 (antibody, human IgG1, kappa, V domains shown, linker-payload conjugated after reduction of the antibody, DAR 8 profile (structure only as a drawing in Table 18)) VH: QVQLVQSGAEVKKPGASVKVSCKASGYIFTSYYLHWVRQAPGQGLEWIGYINPQTGKTSYAQKFQGRVTMTRDTSTSTVYMELSSLRSEDTAVYYCAREYGNYNYPLDYWGQGTLVTVSS VL: DIQMTQSPSSLSASVGDRVTITCRASENQYGYLAWYQQKPGKVPKLLIYNYKNLVEGVPSRFSGSGSGTDFTLTISSLQPEDVATYYCQHHLGTPYTFGQGTKVEIKR | – | 0.38 | 89.1 | 83.9 | 0.67 | 71.8 | – | – | – | – | EC50, cell killing of NCI-H2122 cells [3]: 0.14 nM
6 | BGA6710 variant Q54E, Y57K (antibody, V domains shown, IgG format; both changes in the heavy chain) VH: QVQLVQSGAEVKKPGASVKVSCKASGYIFTSYYLHWVRQAPGQGLEWIGYINPETGKTSYAQKFQGRVTMTRDTSTSTVYMELSSLRSEDTAVYYCAREYGNYNYPLDYWGQGTLVTVSS VL: DIQMTQSPSSLSASVGDRVTITCRASENQYGYLAWYQQKPGKVPKLLIYNYKNLVEGVPSRFSGSGSGTDFTLTISSLQPEDVATYYCQHHLGTPYTFGQGTKVEIK | 2.36 | – | – | – | – | – | 0.00026 | 110000 | 0.58 | 902 | –
7 | BGA6710 variant Q54E, Y57E (antibody, V domains shown, IgG format; both changes in the heavy chain) VH: QVQLVQSGAEVKKPGASVKVSCKASGYIFTSYYLHWVRQAPGQGLEWIGYINPETGETSYAQKFQGRVTMTRDTSTSTVYMELSSLRSEDTAVYYCAREYGNYNYPLDYWGQGTLVTVSS VL: DIQMTQSPSSLSASVGDRVTITCRASENQYGYLAWYQQKPGKVPKLLIYNYKNLVEGVPSRFSGSGSGTDFTLTISSLQPEDVATYYCQHHLGTPYTFGQGTKVEIK | 2.14 | – | – | – | – | – | 0.00025 | 117000 | 0.65 | 927 | –
8 | BGA6710 variant Y57D (antibody, V domains shown, IgG format; change in the heavy chain) VH: QVQLVQSGAEVKKPGASVKVSCKASGYIFTSYYLHWVRQAPGQGLEWIGYINPQTGDTSYAQKFQGRVTMTRDTSTSTVYMELSSLRSEDTAVYYCAREYGNYNYPLDYWGQGTLVTVSS VL: DIQMTQSPSSLSASVGDRVTITCRASENQYGYLAWYQQKPGKVPKLLIYNYKNLVEGVPSRFSGSGSGTDFTLTISSLQPEDVATYYCQHHLGTPYTFGQGTKVEIK | 1.82 | – | – | – | – | – | 0.000195 | 107000 | 0.56 | 949 | –
9 | BGA1789 (antibody, human IgG1, V domains shown, Built on the BGA7592-1F-ph-M (BGA2433) template; human IgG1/kappa) VH: QVQLVQSGAEVKKPGASVKVSCKASGYIFTSYWLHWVRQAPGQGLEWIGYINPQTGYTSYAQKFQGRVTMTRDTSTSTVYMELSSLRSEDTAVYYCAREYGNYNYPLDYWGQGTLVTVSS VL: DIQMTQSPSSLSASVGDRVTITCRASENQYGYLAWYQQKPGKVPKLLIYNYKNLVEGVPSRFSGSGSGTDFTLTISSLQPEDVATYYCQHHLGTPYTFGQGTKVEIK | – | – | – | – | – | – | – | – | – | – | Kd [6]: 14.4 nM; koff [6]: 0.000463 s⁻¹; kon [6]: 32100 M⁻¹ s⁻¹
10 | BGA6710 variant L92E, Y57K (antibody, V domains shown, IgG format) VH: QVQLVQSGAEVKKPGASVKVSCKASGYIFTSYYLHWVRQAPGQGLEWIGYINPQTGKTSYAQKFQGRVTMTRDTSTSTVYMELSSLRSEDTAVYYCAREYGNYNYPLDYWGQGTLVTVSS VL: DIQMTQSPSSLSASVGDRVTITCRASENQYGYLAWYQQKPGKVPKLLIYNYKNLVEGVPSRFSGSGSGTDFTLTISSLQPEDVATYYCQHHEGTPYTFGQGTKVEIK | 5.29 | – | – | – | – | – | 0.000177 | 33400 | 1.09 | 970 | –
11 | BGA6710 variant L92E (antibody, V domains shown, IgG format; L92E in the light chain) VH: QVQLVQSGAEVKKPGASVKVSCKASGYIFTSYYLHWVRQAPGQGLEWIGYINPQTGYTSYAQKFQGRVTMTRDTSTSTVYMELSSLRSEDTAVYYCAREYGNYNYPLDYWGQGTLVTVSS VL: DIQMTQSPSSLSASVGDRVTITCRASENQYGYLAWYQQKPGKVPKLLIYNYKNLVEGVPSRFSGSGSGTDFTLTISSLQPEDVATYYCQHHEGTPYTFGQGTKVEIK | 4.5 | – | – | – | – | – | 0.000188 | 41700 | 1.19 | 945 | –

— patent publication US20250115677A1, “Anti-CEA Antibody Drug Conjugates and Methods of Use” (BeiGene Switzerland GmbH, priority 2022, published 2025)
